This is an account of results in article PMC5384189 (2017).

Assay [1] concerns the target Growth hormone secretagogue receptor (Homo sapiens) (UniProt Q92847). Conditions: cited from earlier work.
Assay [2] has as its target T1, ghrelin (Homo sapiens, UniProt Q9UBU3, octanoylated ghrelin).
T1 chain: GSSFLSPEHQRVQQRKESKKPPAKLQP
Kind of assay: fluorescence displacement of atto520-ghrelin (Goldstein-Barrett corrected).

Assay [3] addresses T1, ghrelin. Kind of assay: fluorescence displacement of atto520-ghrelin.

For orientation: Kd means the concentration at which binding is half-saturated. As for Ghrelin (from UniProt Q9UBU3), the dissociation constant Kd in assay [1] was 0.15 nM.

B1: GHS receptor (GHSR1a) (protein)
chain: MWNATPSEEPGFNLTLADLDWDASPGNDSLGDELLQLFPAPLLAGVTATCVALFVVGIAGNLLTMLVVSRFRELRTTTNLYLSSMAFSDLLIFLCMPLDLVRLWQYRPWNFGDLLCKLFQFVSESCTYATVLTITALSVERYFAICFPLRAKVVVTKGRVKLVIFVIWAVAFCSAGPIFVLVGVEHENGTDPWDTNECRPTEFAVRSGLLTVMVWVSSIFFFLPVFCLTVLYSLIGRKLWRRRRGDAVVGASLRDQNHKQTVKMLAVVVFAFILCWLPFHVGRYLFSKSFEPGSLEIAQISQYCNLVSFVLFYLSAAINPILYNIMSKKYRVAVFRLLGFEPFSQRKLSTLKDESSRAWTESSINT
For orientation: Ki means the equilibrium dissociation constant of an inhibitor or competing ligand from its target. Lower therefore signals a stronger hold on the target. As usually defined, the IC50 is the concentration that gives 50% inhibition. The low end stands for greater potency in that assay, the high end for weaker potency in that assay. For B1, in the assay with ghrelin [2], affinity was put at a Ki of 10 nM. Also, the IC50 with ghrelin [3] came out at 6870 nM.
